Measured values reported in IntAct's records for PubMed 11591686.

B1: RNA polymerase sigma factor RpoD (Pseudomonas aeruginosa (strain ATCC 15692 / PAO1 / 1C / PRS 101 / LMG 12228)), P26480 (parent)
chain: MSGKAQQQSRLKELIARGREQGYLTYAEVNDHLPEDISDPEQVEDIIRMINDMGINVFETAPDADALLLAEADTDEAAAEEAAAALAAVESDIGRTTDPVRMYMREMGTVELLTREGEIEIAKRIEEGIREVMSAIAQFPGTVDSILADYNRIVAEGGRLSDVLSGYIDPDDGSLPAEEVEPVNLKDDSADSKEKDDEEEESDDSSDSDDEGDGGPDPEEARLRFTAVSEQLDKAKKALKKHGRGSKQATAELTGLAELFMPIKLVPKQFDALVARVRSALEGVRAQERAIMQLCVRDARMPRADFLRLFPNHETDEKWVDSVLKSKPKYAEAIERLRDDILRNQQKLAALESEVELTVAEIKEINRAMSIGEAKARRAKKEMVEANLRLVISIAKKYTNRGLQFLDLIQEGNIGLMKAVDKFEYRRGYKFSTYATWWIRQAITRSIADQARTIRIPVHMIETINKLNRISRQMLQEMGREPTPEELGERMDMPEDKIRKVLKIAKEPISMETPIGDDEDSHLGDFIEDSTMQSPIEMATSESLKESTREVLAGLTAREAKVLRMRFGIDMNTDHTLEEVGKQFDVTRERIRQIEAKALRKLRHPSRSEHLRSFLDE
partner: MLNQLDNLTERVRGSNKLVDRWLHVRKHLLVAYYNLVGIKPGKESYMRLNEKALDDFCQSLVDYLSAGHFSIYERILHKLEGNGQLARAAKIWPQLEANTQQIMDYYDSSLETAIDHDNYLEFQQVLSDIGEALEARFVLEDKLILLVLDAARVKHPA
B2: RNA polymerase sigma factor RpoD (Pseudomonas aeruginosa (strain ATCC 15692 / PAO1 / 1C / PRS 101 / LMG 12228)), P26480 (parent)
chain: B1 chain
partner: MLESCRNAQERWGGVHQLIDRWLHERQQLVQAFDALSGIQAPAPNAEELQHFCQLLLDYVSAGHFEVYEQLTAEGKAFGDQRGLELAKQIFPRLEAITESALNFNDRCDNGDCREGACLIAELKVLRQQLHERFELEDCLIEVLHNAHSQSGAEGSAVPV
B3: RNA polymerase sigma factor RpoD (Pseudomonas aeruginosa (strain ATCC 15692 / PAO1 / 1C / PRS 101 / LMG 12228)), P26480 (parent)
chain: B1 chain
partner: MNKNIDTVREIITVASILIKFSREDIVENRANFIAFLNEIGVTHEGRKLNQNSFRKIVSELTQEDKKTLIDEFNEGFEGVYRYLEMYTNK

Variants of: B1
Settings: with rsd_ecoli rsd
In the case of R600H, the “effect of a mutation on the interaction” value is reported as “decreasing interaction”.

Variants of: B2
Settings: with algq_pseae algQ
In the case of R600H, the “effect of a mutation on the interaction” value is reported as “decreasing interaction”.

Variants of: B3
Settings: with asia_bpt4 asiA
With R600H the “effect of a mutation on the interaction” value was “decreasing interaction”.
